Laboratory results reported in article PMC7472333.

Target: WT capsid protein (RRV CP) (Ross River virus, UniProt P08491 1-270)
Assay: EMSA (native agarose gel shift, co-migration of protein and DNA); 3 uM CP, 3 uM DNA, 150 mM NaCl; CLP assembly
Conditions: protein: recombinant; tags: 6xHis (N-terminal)

Sequence of WT capsid protein (RRV CP) (P08491 1-270): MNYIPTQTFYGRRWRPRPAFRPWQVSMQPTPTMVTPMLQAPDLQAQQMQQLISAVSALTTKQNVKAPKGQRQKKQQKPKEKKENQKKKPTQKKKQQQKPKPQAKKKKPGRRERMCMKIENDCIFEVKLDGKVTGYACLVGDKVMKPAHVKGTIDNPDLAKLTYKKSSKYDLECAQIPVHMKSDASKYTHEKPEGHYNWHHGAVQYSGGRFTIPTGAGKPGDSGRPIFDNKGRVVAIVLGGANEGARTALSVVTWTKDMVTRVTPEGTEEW

Binder: GTTGACGTCACAGATGAGATATAAAGCATAAGGGACATGTTCAAACGG (ssDNA) [48-mer linear ssDNA oligomer (DNA cargo)]
- binding result: binds
